According to patent publication US20230220080A1 (EPIMAB BIOTHERAPEUTICS, published 2023):
Read-outs that look alike come from different tables or passages of the source. Blank lines part the entries; values can stand above or below the binder they belong to.

Key:
[1] = molecular target: T1, human PD-L1, recombinant protein (human, UniProt Q9NZQ7 19-239, limits assumed); test: method not stated
T1 construct: also called rhPD-L1; PD-L1-his

[2] = molecular target: T1, human PD-L1, recombinant protein; test: method not stated; remark: listed apart in the source
recombinant human IL-17 [3] = molecular target: T2, recombinant human IL-17 (human, UniProt Q16552 24-155); test: cell-based or functional assay
recombinant human IL-17 [4] = molecular target: T2, recombinant human IL-17; test: SPR Biacore, Ig captured by anti-Fc, antigen injected
Protocol: (§1) The kinetics of FIT-Ig binding to rhIL-17 and rhIL-20 was determined by surface plasmon resonance (Table 5) with a Biacore X100 instrument (Biacore AB, Uppsala, Sweden) using HBS-EP (10 mM HEPES, pH 7.4, 150 mM NaCl, 3 mM EDTA, and 0.005% surfactant P20) at 25° C. Briefly, goat anti-human IgG Fcγ fragment specific polyclonal antibody (Pierce Biotechnology Inc, Rockford, Ill.) was directly immobilized across a CM5 research grade biosensor chip using a standard amine coupling kit according to manufacturer's instructions. Purified FIT-Ig samples were diluted in HEPES-buffered saline for capture across goat anti-human IgG Fc specific reaction surfaces and injected over reaction matrices at a flow rate of 5 μl/min. The association and dissociation rate constants, kon (M-1s-1) and koff (s-1) were determined under a continuous flow rate of 30 μL/min. […] The equilibrium dissociation constant (M) of the reaction between FIT-Ig and the target proteins was then calculated from the kinetic rate constants by the following formula: KD=koff/kon. Aliquots of antigen samples were also simultaneously injected over a blank reference and reaction CM surface to record and subtract any nonspecific binding background to eliminate the majority of the refractive index change and injection noise. Surfaces were regenerated with two subsequent 25 ml injections of 10 mM Glycine (pH 1.5) at a flow rate of 10 μL/min.

[5] = molecular target: T3, hFactor IX (Enzyme Research Laboratory) (human, UniProt P00740 47-461); test: SPR Biacore X100, Ig captured by anti-Fc, 500 nM antigen
T3 construct: also called FIX
Protocol: (§2) Affinity measurement by surface plasmon resonance: The kinetics of FIT-Ig binding to hFactor IX and hFactor X (Enzyme Research Laboratory) was determined by surface plasmon resonance with a Biacore X100 instrument (Biacore AB, Uppsala, Sweden) using HBS-EP (10 mM HEPES, pH 7.4, 150 mM NaCl, 3 mM EDTA, and 0.005% surfactant P20) at 25° C. Briefly, goat anti-human IgG Fc fragment specific polyclonal antibody (Pierce Biotechnology Inc, Rockford, Ill.) was directly immobilized across a CM5 research grade biosensor chip using a standard amine coupling kit according to manufacturer's instructions. Purified FIT-Ig samples were diluted in HEPES-buffered saline for capture across goat anti-human IgG Fc specific reaction surfaces and injected over reaction matrices at a flow rate of 5 μl/min. The association and dissociation rate constants, kon (M-1s-1) and koff (s-1) were determined under a continuous flow rate of 30 μL/min. Rate constants were derived by making kinetic binding measurements at 500 nM antigen concentrations. The equilibrium dissociation constant (M) of the reaction between FIT-Ig and the target proteins was then calculated from the kinetic rate constants by the following formula: KD=koff/kon. Aliquots of antigen samples were also simultaneously injected over a blank reference and reaction CM surface to record and subtract any nonspecific binding background to eliminate the majority of the refractive index change and injection noise. Surfaces were regenerated with two subsequent 25 ml injections of 10 mM Glycine (pH 1.5) at a flow rate of 10 μL/min. The anti-Fc antibody immobilized surfaces were completely regenerated and retained their full capture capacity over twelve cycles.

[6] = molecular target: T4, hFactor X (Enzyme Research Laboratory) (human, UniProt P00742 41-488, limits assumed); test: as above
T4 construct: also called FX
Protocol: as §2

Factor IXa = Factor IXa (UniProt P00740 47-461, limits assumed); test: method not stated
recombinant human IL-20 [7] = molecular target: T5, recombinant human IL-20 (human, UniProt Q9NYY1 25-176); test: cell-based or functional assay
T5 sequence (looked up): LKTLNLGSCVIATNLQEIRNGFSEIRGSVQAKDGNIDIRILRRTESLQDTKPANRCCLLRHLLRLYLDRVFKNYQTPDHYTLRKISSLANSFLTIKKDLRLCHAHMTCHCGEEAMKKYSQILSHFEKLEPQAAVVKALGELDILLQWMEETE

recombinant human IL-20 [8] = molecular target: T5, recombinant human IL-20; test: SPR Biacore, Ig captured by anti-Fc, antigen injected
Protocol: as §1

T2 sequence (Q16552 24-155 limits assumed): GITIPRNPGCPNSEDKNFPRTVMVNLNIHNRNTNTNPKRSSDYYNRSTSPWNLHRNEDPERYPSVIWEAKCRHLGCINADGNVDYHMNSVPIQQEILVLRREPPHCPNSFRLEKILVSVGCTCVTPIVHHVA
T1 sequence (Q9NZQ7 19-239 limits assumed): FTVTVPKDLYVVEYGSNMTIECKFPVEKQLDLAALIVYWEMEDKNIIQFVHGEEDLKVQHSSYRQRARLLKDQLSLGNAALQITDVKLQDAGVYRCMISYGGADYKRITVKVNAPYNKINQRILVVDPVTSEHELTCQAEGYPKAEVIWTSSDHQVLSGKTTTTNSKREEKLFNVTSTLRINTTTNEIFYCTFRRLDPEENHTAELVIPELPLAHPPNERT

B4: anti-IL-17 mAb (clone LY) (antibody, V domains shown)
VH: QVQLVQSGAEVKKPGSSVKVSCKASGYSFTDYHIHWVRQAPGQGLEWMGVINPMYGTTDYNQRFKGRVTITADESTSTAYMELSSLRSEDTAVYYCARYDYFTGTGVYWGQGTLVTVSS
VL: DIVMTQTPLSLSVTPGQPASISCRSSRSLVHSRGNTYLHWYLQKPGQSPQLLIYKVSNRFIGVPDRFSGSGSGTDFTLKISRVEAEDVGVYYCSQSTHLPFTFGQGTKLEIK
notes: parental mAb
Neutralization Potency IC50 (GROα production by Hs27 cells) (recombinant human IL-17 [3]): 0.101 nM
Kd (recombinant human IL-17 [4]): 0.0218 nM
koff (recombinant human IL-17 [4]): 1.8e-05 s⁻¹
kon (recombinant human IL-17 [4]): 824000 M⁻¹ s⁻¹

B7: Factor IXa mAb (antibody, V domains shown)
VH: QVQLVESGGGLVQPGGSLRLSCAASGFTFSYYDIQWVRQAPGKGLEWVSSISPSGQSTYYRREVKGRFTISRDNSKNTLYLQMNSLRAEDTAVYYCARRTGREYGGGWYFDYWGQGTLVTVSS
VL: DIQMTQSPSSLSASVGDRVTITCKASRNIERQLAWYQQKPGQAPELLIYQASRKESGVPDRFSGSRYGTDFTLTISSLQPEDIATYYCQQYSDPPLTFGGGTKVEIK
notes: parental mAb; also called Factor IX mAb; mAb FIX
Kd (Factor IXa): 13 nM
kon (Factor IXa): 27400 M⁻¹ s⁻¹
Kd [5]: 13 nM
koff [5]: 0.000355 s⁻¹
kon [5]: 27400 M⁻¹ s⁻¹

B8: Factor X mAb (antibody, V domains shown)
VH: QVQLVQSGSELKKPGASVKVSCKASGYTFTDNNMDWVRQAPGQGLEWMGDINTRSGGSIYNEEFQDRVIMTVDKSTDTAYMELSSLRSEDTATYHCARRKSYGYYLDEWGEGTLVTVSS
VL: B7 VL
notes: parental mAb; also called mAb FX; Factor X Ab
Kd [6]: 45.1 nM
koff [6]: 0.00142 s⁻¹
kon [6]: 31500 M⁻¹ s⁻¹

B9: anti-hIL-20 mAb (clone 15D2) (antibody, V domains shown)
VH: QVQLVQSGAEVKRPGASVKVSCKASGYTFTNDIIHWVRQAPGQRLEWMGWINAGYGNTQYSQNFQDRVSITRDTSASTAYMELISLRSEDTAVYYCAREPLWFGESSPHDYYGMDVWGQGTTVTVSS
VL: AIQLTQSPSSLSASVGDRVTITCRASQGISSALAWYQQKPGKAPKLLIYDASSLESGVPSRFSGSGSGTDFTLTISSLQPEDFATYYCQQFNSYPLTFGGGTKVEIK
notes: parental mAb
Neutralization Potency IC50 (IL-20R+ BAF3 cell proliferation) (recombinant human IL-20 [7]): 0.05 nM
Kd (recombinant human IL-20 [8]): 0.05 nM
koff (recombinant human IL-20 [8]): 8.3e-05 s⁻¹
kon (recombinant human IL-20 [8]): 1.7e+06 M⁻¹ s⁻¹

B10: Anti-IL-17/IL-20 FIT1-Ig (bispecific antibody, human IgG1, kappa)
chain 1: not shown
chain 2: QVQLVQSGAEVKKPGSSVKVSCKASGYSFTDYHIHWVRQAPGQGLEWMGVINPMYGTTDYNQRFKGRVTITADESTSTAYMELSSLRSEDTAVYYCARYDYFTGTGVYWGQGTLVTVSSASTKGPSVFPLAPSSKSTSGGTAALGCLVKDYFPEPVTVSWNSGALTSGVHTFPAVLQSSGLYSLSSVVTVPSSSLGTQTYICNVNHKPSNTKVDKKVEPKSC
chain 3: not shown
notes: three-polypeptide FIT-Ig, no linker, human IgG1 Fc; described as tetravalent, so two copies of each chain
Neutralization Potency IC50 (GROα production by Hs27 cells) (recombinant human IL-17 [3]): 0.102 nM
Neutralization Potency IC50 (IL-20R+ BAF3 cell proliferation) (recombinant human IL-20 [7]): 0.054 nM
Kd (recombinant human IL-17 [4]): 0.00364 nM
koff (recombinant human IL-17 [4]): 3.88e-05 s⁻¹
kon (recombinant human IL-17 [4]): 1.07e+07 M⁻¹ s⁻¹
Kd (recombinant human IL-20 [8]): 0.0273 nM
koff (recombinant human IL-20 [8]): 3.82e-05 s⁻¹
kon (recombinant human IL-20 [8]): 1.4e+06 M⁻¹ s⁻¹

B11: Anti-IL-17/IL-20 FIT2-Ig (bispecific antibody, human IgG1, kappa)
chain 1: not shown
chain 2: B10 chain 2
chain 3: not shown
notes: three-polypeptide FIT-Ig with GSG linker; tetravalent
Neutralization Potency IC50 (GROα production by Hs27 cells) (recombinant human IL-17 [3]): 0.137 nM
Neutralization Potency IC50 (IL-20R+ BAF3 cell proliferation) (recombinant human IL-20 [7]): 0.05 nM
Kd (recombinant human IL-17 [4]): 0.00165 nM
koff (recombinant human IL-17 [4]): 1.53e-05 s⁻¹
kon (recombinant human IL-17 [4]): 9.24e+06 M⁻¹ s⁻¹
Kd (recombinant human IL-20 [8]): 0.0195 nM
koff (recombinant human IL-20 [8]): 3.5e-05 s⁻¹
kon (recombinant human IL-20 [8]): 1.8e+06 M⁻¹ s⁻¹

B12: Anti-IL-17/IL-20 FIT3-Ig (bispecific antibody, human IgG1, kappa)
chain 1: not shown
chain 2: B10 chain 2
chain 3: not shown
notes: three-polypeptide FIT-Ig with GGGGSGS linker; tetravalent
Neutralization Potency IC50 (GROα production by Hs27 cells) (recombinant human IL-17 [3]): 0.146 nM
Neutralization Potency IC50 (IL-20R+ BAF3 cell proliferation) (recombinant human IL-20 [7]): 0.072 nM
Kd (recombinant human IL-17 [4]): 0.0011 nM
koff (recombinant human IL-17 [4]): 9.58e-06 s⁻¹
kon (recombinant human IL-17 [4]): 8.71e+06 M⁻¹ s⁻¹
Kd (recombinant human IL-20 [8]): 0.0273 nM
koff (recombinant human IL-20 [8]): 3.82e-05 s⁻¹
kon (recombinant human IL-20 [8]): 1.4e+06 M⁻¹ s⁻¹

Now from value to binder:

Kd [1]: 0.735 nM
B1: PD-L1 antibody 10A5 (antibody, V domains shown)
VH: QVQLVQSGAEVKKPGASVKVSCKASGYTFTSYDVHWVRQAPGQRLEWMGWLHADTGITKFSQKFQGRVTITRDTSASTAYMELSSLRSEDTAVYYCARERIQLWFDYWGQGTLVTVSS
VL: DIQMTQSPSSLSASVGDRVTITCRASQGISSWLAWYQQKPEKAPKSLIYAASSLQSGVPSRFSGSGSGTDFTLTISSLQPEDFATYYCQQYNSYPYTFGQGTKLEIK
notes: parental mAb

Kd [2]: 3.89 nM
B2: FIT012b-Ig EGFR (panitumumab)/PD-L1 (1B12) (bispecific antibody, human IgG1, kappa)
chain 1: not shown
chain 2: QVQLQESGPGLVKPSETLSLTCTVSGGSVSSGDYYWTWIRQSPGKGLEWIGHIYYSGNTNYNPSLKSRLTISIDTSKTQFSLKLSSVTAADTAIYYCVRDRVTGAFDIWGQGTMVTVSSASTKGPSVFPLAPSSKSTSGGTAALGCLVKDYFPEPVTVSWNSGALTSGVHTFPAVLQSSGLYSLSSVVTVPSSSLGTQTYICNVNHKPSNTKVDKKVEPKSC
chain 3: not shown
notes: leader left out

Kd [1]: 0.58 nM
B3: FIT012d-Ig EGFR (panitumumab)/PD-L1 (10A5) (bispecific antibody)
chain 1: not shown
chain 2: B2 chain 2
chain 3: not shown
notes: leader left out

Kd [5]: 9.91 nM
koff [5]: 0.000332 s⁻¹
kon [5]: 33500 M⁻¹ s⁻¹
Kd [6]: 10 nM
koff [6]: 0.000776 s⁻¹
kon [6]: 77500 M⁻¹ s⁻¹
B5: FIT014a Factor IX (Factor IX Ab)/Factor X (Factor X Ab) (bispecific antibody, human IgG4 S228P, kappa)
chain 1: DIQMTQSPSSLSASVGDRVTITCKASRNIERQLAWYQQKPGQAPELLIYQASRKESGVPDRFSGSRYGTDFTLTISSLQPEDIATYYCQQYSDPPLTFGGGTKVEIKRTVAAPSVFIFPPSDEQLKSGTASVVCLLNNFYPREAKVQWKVDNALQSGNSQESVTEQDSKDSTYSLSSTLTLSKADYEKHKVYACEVTHQGLSSPVTKSFNRGECQVQLVQSGSELKKPGASVKVSCKASGYTFTDNNMDWVRQAPGQGLEWMGDINTRSGGSIYNEEFQDRVIMTVDKSTDTAYMELSSLRSEDTATYHCARRKSYGYYLDEWGEGTLVTVSSASTKGPSVFPLAPCSRSTSESTAALGCLVKDYFPEPVTVSWNSGALTSGVHTFPAVLQSSGLYSLSSVVTVPSSSLGTQTYTCNVDHKPSNTKVDKRVESKYGPPCPPCPAPEFLGGPSVFLFPPKPKDTLMISRTPEVTCVVVDVSQEDPEVQFNWYVDGVEVHNAKTKPREEQYNSTYRVVSVLTVLHQDWLNGKEYKCKVSNKGLPSSIEKTISKAKGQPREPQVYTLPPSQEEMTKNQVSLTCLVKGFYPSDIAVEWESNGQPENNYKTTPPVLDSDGSFFLYSKLTVDKSRWQEGNVFSCSVMHEALHNHYTQESLSLSP
chain 2: QVQLVESGGGLVQPGGSLRLSCAASGFTFSYYDIQWVRQAPGKGLEWVSSISPSGQSTYYRREVKGRFTISRDNSKNTLYLQMNSLRAEDTAVYYCARRTGREYGGGWYFDYWGQGTLVTVSSASTKGPSVFPLAPSSKSTSGGTAALGCLVKDYFPEPVTVSWNSGALTSGVHTFPAVLQSSGLYSLSSVVTVPSSSLGTQTYICNVNHKPSNTKVDKKVEPKSC
chain 3: DIQMTQSPSSLSASVGDRVTITCKASRNIERQLAWYQQKPGQAPELLIYQASRKESGVPDRFSGSRYGTDFTLTISSLQPEDIATYYCQQYSDPPLTFGGGTKVEIKRTVAAPSVFIFPPSDEQLKSGTASVVCLLNNFYPREAKVQWKVDNALQSGNSQESVTEQDSKDSTYSLSSTLTLSKADYEKHKVYACEVTHQGLSSPVTKSFNRGEC
notes: leader left out; also called FIT-Ig 014a

Kd (Factor IXa): 9.9 nM
B6: FIT14-Ig Factor IXa/Factor X (bispecific antibody, human IgG4 S228P, kappa)
chain 1: B5 chain 1
chain 2: B5 chain 2
chain 3: B5 chain 3
notes: leader left out; also called FIT-Ig 014; FIT-Ig 14
